These results are taken from patent US20260035692, “METHOD FOR SCREENING FOR APTAMER BY SEQUENCING” (GeneMind Biosciences Co., Ltd., published 2026).

Conditions in all cases: tags: Alexa Fluor 647 label (SA-alexa647); chain copies: 4
The target in series [1] is T1, streptavidin (SA) (UniProt P22629 P22629:25-183). In words: NY selection: no signal with 500 nM SA alone. The procedure: (3) After sequencing was completed, target protein SA at a concentration of 500 nmol/L and a combination of target proteins SA and 3RA at 500 nmol/L each were sequentially introduced into the flowcell, followed by incubation. After each incubation was completed, 300 μL of PBST was used to wash the channels. After washing was completed, a 640 nm laser was used for excitation, and the surface of the solid carrier was imaged to collect the corresponding emission signals. Before introducing the next target at each time, the channels were washed with 750 μL of NaOH to remove the previously bound target.

In series [2] the target is T1, streptavidin (SA). The series is described as follows: 0 of 2808 (30% mix) and 2 of 575 (10% mix) target-bound clusters were reverse strand.
The target of series [3] is T1, streptavidin (SA). The series is described as follows: flowcell clusters in mixture library; signal graded with 1.95-500 nM SA-alexa647, weak below 31 nM. The protocol:
(3) Into the four flow channels of the sequencing flowcell (L1, L2, L3, and L4 respectively), SA-alexa647 at concentrations of 500 nmol/L, 125 nmol/L, 31.25 nmol/L, and 1.95 nmol/L was introduced, respectively, and the flowcell was incubated for 30 minutes for in situ hybridization. After incubation, 300 μL of PBST was used to wash the channels to remove unreacted fluorescently labeled SA-alexa647.

T1 sequence (P22629 25-183, one chain of several): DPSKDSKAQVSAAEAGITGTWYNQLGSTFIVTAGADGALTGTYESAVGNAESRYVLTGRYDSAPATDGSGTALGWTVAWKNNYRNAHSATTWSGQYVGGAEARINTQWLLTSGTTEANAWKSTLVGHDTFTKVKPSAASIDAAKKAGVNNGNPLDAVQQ

B1: 3RA positive aptamer sequence 1 (ssDNA)
DNA: TCACGGTAGCACGCATAGGGGAGGATTCCGACTAAGTTTCCGTCGCATGAGCGTTGCTATGCGTGGAGTGCTGAAGTTGGC
Take B1: in series [1], the binding result is “no binding”.

B2: SA-positive aptamer reverse strand (ssDNA)
DNA: TTCACGGTAGCACGCATAGGCAACCAAGTAGTCATTTCGGAACCTGCGATCGGTGCGTCCATCTGACCTCTGTGCTGCT
modifications: [NONE]
For B2, in series [2], the binding result is listed as “no binding”.

B3: tagged SA-positive aptamer (GGCTAC tag) (ssDNA)
DNA: GGCTACAGCAGCACAGAGGTCAGATGGACGCACCGATCGCAGGTTCCGAAATGACTACTTGGTTGCCTATGCGTGCTACCGTGAAGGCTAC
As for B3, the binding result in series [3] is on record as “binds”.

B4: 3RA positive aptamer sequence 3 (ssDNA)
DNA: CACGGTAGCACGCATAACGCCGAGTTCCATTATAAAGTCCGCGCCCGACTACCCCCGTTATGCGTGGAGTGCTGGACATGC
Regarding B4, the binding result in series [1] is “no binding”.

B5: 3RA positive aptamer sequence 4 (ssDNA)
DNA: AATGGTCCAGCACTCCACGCATAACGAATAGGTCCTAAACGAGGGGTCAGGGAAGTCGCCGGTTATGCGTGCTACCGTGAA
As for B5, the binding result in series [1] is given as “no binding”.

B6: 3RA positive aptamer sequence 2 (ssDNA)
DNA: CGAAGTTCAGCACTCCACGCATAGCCCTCGGAGGTCTACGAGAATGCCTACAGCCCTGTGCCCTATGCGTGCTACCGTGAA
As to B6, the binding result in series [1] is reported as “no binding”.
